# Results from patent EP2074145B1.
# B1: humanized antibody C2 HuVH2/HuVK3 (antibody, human IgG4 S228P, kappa, V domains shown)
# VH: EVQLVESGGGLVQPGGSLRLSCAASGFTFSSYGMSWVRQAPGKGLEWVASINSNGGSTYYPDSVKGRFTISRDNAKNSLYLQMNSLRAEDTAVYYCASGDYWGQGTTVTVSS
# VL: DIVMTQSPLSLPVTPGEPASISCRSSQSLVYSNGDTYLHWYLQKPGQSPKLLIYKVSNRFSGVPDRFSGSGSGTDFTLKISRVEAEDVGVYYCSQSTHVPWTFGQGTKVEIKR
# Target: Amyloid Beta (antigen of the Amyloid Beta ELISA) (UniProt P05067)
# Experiment: Amyloid Beta ELISA; purified antibodies from stable NS0 cell lines
# Chain of Amyloid Beta (antigen of the Amyloid Beta ELISA) (P05067 672-713 limits assumed): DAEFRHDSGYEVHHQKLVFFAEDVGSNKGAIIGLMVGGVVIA
binder,measurement,value
B1,fold reduction of binding activity compared to chimeric control antibody C2 ChVHAF/ChVK,2 fold
